One molecule from paper PMC9526450 (Nature structural & molecular biology, 2022) can be followed below.

The experiment has as its target T1, Strep-tagged WT UBE2O from Expi293F cells (human, UniProt Q9C0C9 1-1292).
T1 sequence (looked up): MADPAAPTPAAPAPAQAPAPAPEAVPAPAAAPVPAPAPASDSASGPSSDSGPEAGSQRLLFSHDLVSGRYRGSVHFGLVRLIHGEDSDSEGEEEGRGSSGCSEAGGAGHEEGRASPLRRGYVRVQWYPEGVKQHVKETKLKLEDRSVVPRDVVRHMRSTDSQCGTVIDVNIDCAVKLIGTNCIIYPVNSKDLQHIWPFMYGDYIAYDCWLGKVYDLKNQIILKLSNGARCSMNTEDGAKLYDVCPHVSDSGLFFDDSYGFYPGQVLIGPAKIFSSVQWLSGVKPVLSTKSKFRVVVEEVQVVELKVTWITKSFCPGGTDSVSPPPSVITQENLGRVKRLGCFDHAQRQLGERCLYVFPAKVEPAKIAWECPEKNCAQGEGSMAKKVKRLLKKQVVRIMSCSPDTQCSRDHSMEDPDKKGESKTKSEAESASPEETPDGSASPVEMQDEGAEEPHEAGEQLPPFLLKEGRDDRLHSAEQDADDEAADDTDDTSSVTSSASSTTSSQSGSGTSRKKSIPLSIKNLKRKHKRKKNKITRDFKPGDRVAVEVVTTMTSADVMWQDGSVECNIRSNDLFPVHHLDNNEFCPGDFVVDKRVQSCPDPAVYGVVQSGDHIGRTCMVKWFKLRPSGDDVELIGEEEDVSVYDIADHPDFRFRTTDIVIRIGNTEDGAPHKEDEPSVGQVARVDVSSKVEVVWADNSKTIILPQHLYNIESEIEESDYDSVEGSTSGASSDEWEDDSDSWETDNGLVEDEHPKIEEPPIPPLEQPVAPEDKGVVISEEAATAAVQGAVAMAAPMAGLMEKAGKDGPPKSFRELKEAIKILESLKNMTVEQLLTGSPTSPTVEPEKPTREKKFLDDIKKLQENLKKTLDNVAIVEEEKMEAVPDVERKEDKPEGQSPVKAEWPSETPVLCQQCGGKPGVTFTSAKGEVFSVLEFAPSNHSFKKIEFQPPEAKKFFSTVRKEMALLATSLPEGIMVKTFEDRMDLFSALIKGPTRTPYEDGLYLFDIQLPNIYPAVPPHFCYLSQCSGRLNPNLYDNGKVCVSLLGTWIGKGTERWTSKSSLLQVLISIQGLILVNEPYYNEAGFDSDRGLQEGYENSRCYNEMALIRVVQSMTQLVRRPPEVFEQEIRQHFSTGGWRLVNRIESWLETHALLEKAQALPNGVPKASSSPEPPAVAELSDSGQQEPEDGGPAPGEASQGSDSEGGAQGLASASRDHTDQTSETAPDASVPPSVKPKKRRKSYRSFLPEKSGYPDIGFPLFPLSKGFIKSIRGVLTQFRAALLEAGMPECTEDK
As to the kind of experiment: SEC. A general note: SEC sorts molecules by how far they enter the pores of the column.

B1: purified Strep-tagged NAP1L1 (natural protein, human, UniProt P55209 1-391, looked up)
chain: MADIDNKEQSELDQDLDDVEEVEEEETGEETKLKARQLTVQMMQNPQILAALQERLDGLVETPTGYIESLPRVVKRRVNALKNLQVKCAQIEAKFYEEVHDLERKYAVLYQPLFDKRFEIINAIYEPTEEECEWKPDEEDEISEELKEKAKIEDEKKDEEKEDPKGIPEFWLTVFKNVDLLSDMVQEHDEPILKHLKDIKVKFSDAGQPMSFVLEFHFEPNEYFTNEVLTKTYRMRSEPDDSDPFSFDGPEIMGCTGCQIDWKKGKNVTLKTIKKKQKHKGRGTVRTVTKTVSNDSFFNFFAPPEVPESGDLDDDAEAILAADFEIGHFLRERIIPRSVLYFTGEAIEDDDDDYDEEGEEADEEGEEEGDEENDPDYDPKKDQNPAECKQQ
Consider B1, for which the binding result is “binds”.
